Series [1] is described as follows: Thermally driven MC to SP transition, decrease of MC absorption in the dark. In kind it is physicochemical. As to the method:
FIG. 7. (A), Time dependent absorption spectra of the lowest energy transition of the MC state of compound 12 dissolved in ethanol at a concentration of 20 μM at 20° in the dark—the spectra, from top to bottom, were recorded at the following times: a) 0; b), 60 s, c), 120 s; d), 180 s; e), 240 s; f), 360 s; g), 420 s; h), 480 s. The lowermost curve is the absorption spectrum of the non-irradiated SP state. (B), The rate for the thermally driven MC to SP transition was determined by analyzing the log of the maximum absorption value for each spectrum shown in FIG. 7A as a function of time. The reaction rate of […] was calculated using a least squares fitting procedure. (C), Absorption spectra of the MC-G-actin conjugate (compound 9) as a function of time in the dark. Spectra are as follows: a), before irradiation; b), after 30 second irradiation with 365 nm light; c), after 5 minutes in the dark at 20°; d), after 22 minutes in the dark at 20°; e) after irradiation with 546 nm light for 30 seconds
Thermally-driven transitions between MC and SP. The rate for the thermal equilibration of MC to SP in ethanol was measured using the decrease in the maximum MC absorption value as a function of time in the dark (FIGS. 7A,B). […] This rate, however, is too fast for many of the envisioned applications of optical switches in biology. […]

A short description of series [2]: Absorption maximum of the MC state. In kind it is physicochemical. From the text: The family of Ca^2+-optical switch described in this invention has built-in design features that can be used to tune the maximum of the action spectrum for the MC-SP transition. The nitro group generates a weakly fluorescent MC state, which can be used to quantify the kinetics of Ca^2+-perturbations and to image the distribution of the MC state within living cells.
The absorption properties of the MC state of the Ca^2+ switch can be tuned using different 1-nitroso-2-naphthol. […] We will investigate the photophysics of optimized Ca^2+ switches based on spironaphthoxazine. We anticipate, based on our observations of the thermally-induced MC to SP transition that the rate of photochemistry for the spironaphthoxazine will be faster that the 11 μs reported for the spirobenzopyran group (Gorner, 2001).

Series [3] deals with barbed-end of the actin filament. Particulars: Ca^2+-dependent; Southwick & DiNubile, 1986; read-out: kd for binding to the barbed-end of the actin filament; cited from earlier work.
Series [4] has as its target T1, G-actin (Oryctolagus cuniculus, UniProt P68135). Put plainly: CapG binding to Prodan-G-actin (fluorescence). Set-up: Rabbit muscle G-actin is purified according to Marriott (1994); from tissue; host or cells: rabbit muscle; species or system Rabbit. Here is the method:
(§1) FIG. 20: Caging of CapG (A): Absorption spectra of […] samples of CapG (2), caged CapG (curve 1).
Preparation and characterization of caged CapG: Caged CapG was prepared using a modification of our published method for caging actin and profilin (Marriott, 1994; Marriott et al, 2003). In brief a purified solution of CapG (1 mg/ml) was dialyzed against 20 mM borate buffer, pH 8.5 overnight. The protein was centrifuged and the OD280 nm measured to determine the protein concentration (FIG. 8A). A 0.1 M acetone solution of NVOC-Cl was freshly prepared and added to the CapG with vigorous vortexing to a final concentration of 1 mM. This was usually realized by 2-3 additions over a 5-minute period. After 30 minutes at room temperature in the dark, the protein was centrifuged and dialyzed against 2×500 ml of G-buffer overnight. The absorption spectrum of the protein was recorded using the dialysis buffer as a reference and the amount of NVOC was determined by measuring the A350nm (E350nm=5,000 M^−1cm^−1). The concentration of protein was determined using the Bio-Rad Bradford assay. The introduction of 3-4 NVOC groups was sufficient to inhibit the formation of G-actin-CapG using two independent assays based on sensitivity of Prodan-actin to CapG binding. […]

In series [5] the target is T1, G-actin. Nature of the series: Prodan-actin polymerization kinetics. In kind it is biochemical, Rabbit. On the set-up: Rabbit muscle G-actin is purified according to Marriott (1994); from tissue; host or cells: rabbit muscle. Here is the method: as §1
Preparation and characterization of caged CapG: Caged CapG was prepared using a modification of our published method for caging actin and profilin (Marriott, 1994; Marriott et al, 2003). In brief a purified solution of CapG (1 mg/ml) was dialyzed against 20 mM borate buffer, pH 8.5 overnight. The protein was centrifuged and the OD280 nm measured to determine the protein concentration (FIG. 8A). A 0.1 M acetone solution of NVOC-Cl was freshly prepared and added to the CapG with vigorous vortexing to a final concentration of 1 mM. This was usually realized by 2-3 additions over a 5-minute period. After 30 minutes at room temperature in the dark, the protein was centrifuged and dialyzed against 2×500 ml of G-buffer overnight. The absorption spectrum of the protein was recorded using the dialysis buffer as a reference and the amount of NVOC was determined by measuring the A350nm (E350nm=5,000 M^−1cm^−1). The concentration of protein was determined using the Bio-Rad Bradford assay. The introduction of 3-4 NVOC groups was sufficient to inhibit the formation of G-actin-CapG using two independent assays based on sensitivity of Prodan-actin to CapG binding. In FIG. 20B, CapG binding to Prodan-G-actin is seen to shift the emission spectrum, from 496 nm to 465 nm, and is accompanied by a 1.5 fold (FIG. 20B, curve 1)—this signal can be used to analyze the effects of CapG on actin polymerization kinetics as shown in FIG. 20C.

Like-named read-outs stand apart in the source and are kept apart here.

What is called Kd is the concentration at which binding is half-saturated.

As to `CN1c2cc(CBr)ccc2C(C)(C)C12C=Nc1c(ccc3ccccc13)O2` (centres unmarked) [Compound 17, 6′-(Bromomethyl)spironaphthoxazin], the “thermal reversion to the SP state” value in series [1] is on record as “within seconds”. Further, the “MC state absorption maximum” value in series [2] was “about 620 nm”.

B1: CapG: 40 kD, Ca^2+ regulated actin filament barbed-end capping protein, His-tagged, cloned from mouse cDNA library (protein, UniProt P24452 1-352, looked up)
Macrophage-capping protein: MYTPIPQSGSPFPASVQDPGLHIWRVEKLKPVPIARESHGIFFSGDSYLVLHNGPEEASHLHLWIGQQSSRDEQGACAVLAVHLNTLLGERPVQHREVQGNESDLFMSYFPRGLKYYREGGVESAFHKTTSGARGAAIRKLYQVKGKKNIRATERPLSWDSFNTGDCFILDLGQNIFAWCGGKSNILERNKARDLALAIRDSERQGKAQVEIITDGEEPAEMIQVLGPKPALKEGNPEEDITADQTRPNAQAAALYKVSDATGQMNLTKVADSSPFASELLIPDDCFVLDNGLCAQIYIWKGRKANEKERQAALQVADGFISRMRYSPNTQVEILPQGRESPIFKQFFKNWK
modifications: His tag
notes: 40 kD, Ca^2+ regulated actin filament barbed-end capping protein, His-tagged, cloned from mouse cDNA library
Turning to B1, the Kd in series [3] is 1000 nM; with G-actin [4] (data not shown, read-out: kd of complex with G-actin), 100 nM. The “effect on actin polymerization” value in the series with G-actin [5] is on record as “inhibits the polymerization of G-actin”.

B2: caged CapG: CapG labeled with 3-4 NVOC groups using NVOC-Cl (protein, UniProt P24452 1-352, looked up)
Macrophage-capping protein: B1 Macrophage-capping protein
modifications: caged with 3-4 NVOC groups
notes: CapG labeled with 3-4 NVOC groups using NVOC-Cl
For the molecule B2, the “binding to G-actin” value with G-actin [4] (Prodan-G-actin) is “binds poorly to G-actin”. Further, the “effect on actin polymerization” value in the series with G-actin [5] is listed as “limited effect on the rate of actin polymerization”; with G-actin [5] (listed as Caged CapG), “almost normal polymerization kinetics”.

Source of the values: patent publication US20090280060A1, “PHOTOCHROMIC PROBES” (priority 2004, published 2009).
